This note sets out measurements from patent publication US20240400708A1.

This assay concerns the target feline FcRn complex (FcRn-α subunit and β-microglobulin) (feline). As to the kind of experiment: SPR (Biacore), FcRn on SA chip, pH 6. (SPR reads the build-up and loss of mass on a sensor chip optically.)

B1: feline IgG1a mutant ID No. 304: D399M, D401R (antibody, part only; not given: variable domains and light chain, not shown: another chain or arm of the molecule; small tags and cut ends)
constant: ASTTAPSVFPLAPSCGTTSGATVALACLVLGYFPEPVTVSWNSGALTSGVHTFPAVLQASGLYSLSSMVTVPSSRWLSDTFTCNVAHPPSNTKVDKTVRKTDHPPGPKPCDCPKCPPPEMLGGPSIFIFPPKPKDTLSISRTPEVTCLVVDLGPDDSDVQITWFVDNTQVYTAKTSPREEQFNSTYRVVSVLPILHQDWLKGKEFKCKVNSKSLPSPIERTISKAKGQPHEPQVYVLPPAQEELSRNKVSVTCLIKSFHPPDIAVEWEITGQPEPENNYRTTPPQLMSRGTYFVYSKLSVDRSHWQRGNTYTCSVSHEALHSHHTQKSLTQSPGK
Usually Kd stands for a measure of binding affinity in units of concentration. The molecule B1 gave a Kd of 5.43 nM.

B2: feline IgG1a mutant ID No. 313: Q311M, D312P, L314K (antibody, part only; not given: Variable domains, not shown: another chain or arm of the molecule)
constant: ASTTAPSVFPLAPSCGTTSGATVALACLVLGYFPEPVTVSWNSGALTSGVHTFPAVLQASGLYSLSSMVTVPSSRWLSDTFTCNVAHPPSNTKVDKTVRKTDHPPGPKPCDCPKCPPPEMLGGPSIFIFPPKPKDTLSISRTPEVTCLVVDLGPDDSDVQITWFVDNTQVYTAKTSPREEQFNSTYRVVSVLPILHMPWKKGKEFKCKVNSKSLPSPIERTISKAKGQPHEPQVYVLPPAQEELSRNKVSVTCLIKSFHPPDIAVEWEITGQPEPENNYRTTPPQLDSDGTYFVYSKLSVDRSHWQRGNTYTCSVSHEALHSHHTQKSLTQSPGK
Molecule B2 yielded a Kd of 18.9 nM.

B3: feline IgG1a mutant ID No. 315: Q311Y, D312P, L314K (antibody, part only; not given: Variable domains, not shown: another chain or arm of the molecule)
constant: ASTTAPSVFPLAPSCGTTSGATVALACLVLGYFPEPVTVSWNSGALTSGVHTFPAVLQASGLYSLSSMVTVPSSRWLSDTFTCNVAHPPSNTKVDKTVRKTDHPPGPKPCDCPKCPPPEMLGGPSIFIFPPKPKDTLSISRTPEVTCLVVDLGPDDSDVQITWFVDNTQVYTAKTSPREEQFNSTYRVVSVLPILHYPWKKGKEFKCKVNSKSLPSPIERTISKAKGQPHEPQVYVLPPAQEELSRNKVSVTCLIKSFHPPDIAVEWEITGQPEPENNYRTTPPQLDSDGTYFVYSKLSVDRSHWQRGNTYTCSVSHEALHSHHTQKSLTQSPGK
B3 registered a Kd of 11.4 nM.

B4: feline IgG1a mutant ID No. 314: Q311R, D312P, L314K (antibody, part only; not given: Variable domains, not shown: another chain or arm of the molecule)
constant: ASTTAPSVFPLAPSCGTTSGATVALACLVLGYFPEPVTVSWNSGALTSGVHTFPAVLQASGLYSLSSMVTVPSSRWLSDTFTCNVAHPPSNTKVDKTVRKTDHPPGPKPCDCPKCPPPEMLGGPSIFIFPPKPKDTLSISRTPEVTCLVVDLGPDDSDVQITWFVDNTQVYTAKTSPREEQFNSTYRVVSVLPILHRPWKKGKEFKCKVNSKSLPSPIERTISKAKGQPHEPQVYVLPPAQEELSRNKVSVTCLIKSFHPPDIAVEWEITGQPEPENNYRTTPPQLDSDGTYFVYSKLSVDRSHWQRGNTYTCSVSHEALHSHHTQKSLTQSPGK
On to B4, for which the Kd stood at 2130 nM.

B5: feline IgG1a mutant ID No. 306: D399M, T403R (antibody, part only; not given: Variable domains, not shown: another chain or arm of the molecule; small tags and cut ends)
constant: ASTTAPSVFPLAPSCGTTSGATVALACLVLGYFPEPVTVSWNSGALTSGVHTFPAVLQASGLYSLSSMVTVPSSRWLSDTFTCNVAHPPSNTKVDKTVRKTDHPPGPKPCDCPKCPPPEMLGGPSIFIFPPKPKDTLSISRTPEVTCLVVDLGPDDSDVQITWFVDNTQVYTAKTSPREEQFNSTYRVVSVLPILHQDWLKGKEFKCKVNSKSLPSPIERTISKAKGQPHEPQVYVLPPAQEELSRNKVSVTCLIKSFHPPDIAVEWEITGQPEPENNYRTTPPQLMSDGRYFVYSKLSVDRSHWQRGNTYTCSVSHEALHSHHTQKSLTQSPGK
B5 registered a Kd of 12.8 nM.

B6: feline IgG1a mutant ID No. 311: Q311H, D312P, L314K (antibody, part only; not given: Variable domains, not shown: another chain or arm of the molecule; small tags and cut ends)
constant: ASTTAPSVFPLAPSCGTTSGATVALACLVLGYFPEPVTVSWNSGALTSGVHTFPAVLQASGLYSLSSMVTVPSSRWLSDTFTCNVAHPPSNTKVDKTVRKTDHPPGPKPCDCPKCPPPEMLGGPSIFIFPPKPKDTLSISRTPEVTCLVVDLGPDDSDVQITWFVDNTQVYTAKTSPREEQFNSTYRVVSVLPILHHPWKKGKEFKCKVNSKSLPSPIERTISKAKGQPHEPQVYVLPPAQEELSRNKVSVTCLIKSFHPPDIAVEWEITGQPEPENNYRTTPPQLDSDGTYFVYSKLSVDRSHWQRGNTYTCSVSHEALHSHHTQKSLTQSPGK
B6 came in with a Kd of 1.44 nM.

B7: feline IgG1a mutant ID No. 307: D401R, T403R (antibody, part only; not given: Variable domains, not shown: another chain or arm of the molecule; small tags and cut ends)
constant: ASTTAPSVFPLAPSCGTTSGATVALACLVLGYFPEPVTVSWNSGALTSGVHTFPAVLQASGLYSLSSMVTVPSSRWLSDTFTCNVAHPPSNTKVDKTVRKTDHPPGPKPCDCPKCPPPEMLGGPSIFIFPPKPKDTLSISRTPEVTCLVVDLGPDDSDVQITWFVDNTQVYTAKTSPREEQFNSTYRVVSVLPILHQDWLKGKEFKCKVNSKSLPSPIERTISKAKGQPHEPQVYVLPPAQEELSRNKVSVTCLIKSFHPPDIAVEWEITGQPEPENNYRTTPPQLDSRGRYFVYSKLSVDRSHWQRGNTYTCSVSHEALHSHHTQKSLTQSPGK
For the molecule B7, the Kd was 15.9 nM.

B8: feline IgG1a mutant ID No. 309: P247V, T250Q (antibody, part only; not given: Variable domains, not shown: another chain or arm of the molecule; small tags and cut ends)
constant: ASTTAPSVFPLAPSCGTTSGATVALACLVLGYFPEPVTVSWNSGALTSGVHTFPAVLQASGLYSLSSMVTVPSSRWLSDTFTCNVAHPPSNTKVDKTVRKTDHPPGPKPCDCPKCPPPEMLGGPSIFIFPPKVKDQLSISRTPEVTCLVVDLGPDDSDVQITWFVDNTQVYTAKTSPREEQFNSTYRVVSVLPILHQDWLKGKEFKCKVNSKSLPSPIERTISKAKGQPHEPQVYVLPPAQEELSRNKVSVTCLIKSFHPPDIAVEWEITGQPEPENNYRTTPPQLDSDGTYFVYSKLSVDRSHWQRGNTYTCSVSHEALHSHHTQKSLTQSPGK
B8: the Kd worked out at 9.6 nM.

B9: feline IgG1a mutant ID No. 322: S428Y, D312P, S434Y, D399M, D401R (antibody, part only; not given: variable domains and light chain, not shown: another chain or arm of the molecule)
constant: ASTTAPSVFPLAPSCGTTSGATVALACLVLGYFPEPVTVSWNSGALTSGVHTFPAVLQASGLYSLSSMVTVPSSRWLSDTFTCNVAHPPSNTKVDKTVRKTDHPPGPKPCDCPKCPPPEMLGGPSIFIFPPKPKDTLSISRTPEVTCLVVDLGPDDSDVQITWFVDNTQVYTAKTSPREEQFNSTYRVVSVLPILHQPWLKGKEFKCKVNSKSLPSPIERTISKAKGQPHEPQVYVLPPAQEELSRNKVSVTCLIKSFHPPDIAVEWEITGQPEPENNYRTTPPQLMSRGTYFVYSKLSVDRSHWQRGNTYTCSVYHEALHYHHTQKSLTQSPGK
In turn, B9 returned a Kd of 0.00402 nM.

B10: feline IgG1a mutant ID No. 320: S428Y, D312P, S434P (antibody, part only; not given: Variable domains, not shown: another chain or arm of the molecule)
constant: ASTTAPSVFPLAPSCGTTSGATVALACLVLGYFPEPVTVSWNSGALTSGVHTFPAVLQASGLYSLSSMVTVPSSRWLSDTFTCNVAHPPSNTKVDKTVRKTDHPPGPKPCDCPKCPPPEMLGGPSIFIFPPKPKDTLSISRTPEVTCLVVDLGPDDSDVQITWFVDNTQVYTAKTSPREEQFNSTYRVVSVLPILHQPWLKGKEFKCKVNSKSLPSPIERTISKAKGQPHEPQVYVLPPAQEELSRNKVSVTCLIKSFHPPDIAVEWEITGQPEPENNYRTTPPQLDSDGTYFVYSKLSVDRSHWQRGNTYTCSVYHEALHPHHTQKSLTQSPGK
The molecule B10 gave a dissociation constant (Kd) of 22.7 nM. Against the preceding molecule, the Kd is about 5600-fold higher.

B11: feline IgG1a mutant ID No. 312: Q311K, D312P, L314K (antibody, part only; not given: Variable domains, not shown: another chain or arm of the molecule)
constant: ASTTAPSVFPLAPSCGTTSGATVALACLVLGYFPEPVTVSWNSGALTSGVHTFPAVLQASGLYSLSSMVTVPSSRWLSDTFTCNVAHPPSNTKVDKTVRKTDHPPGPKPCDCPKCPPPEMLGGPSIFIFPPKPKDTLSISRTPEVTCLVVDLGPDDSDVQITWFVDNTQVYTAKTSPREEQFNSTYRVVSVLPILHKPWKKGKEFKCKVNSKSLPSPIERTISKAKGQPHEPQVYVLPPAQEELSRNKVSVTCLIKSFHPPDIAVEWEITGQPEPENNYRTTPPQLDSDGTYFVYSKLSVDRSHWQRGNTYTCSVSHEALHSHHTQKSLTQSPGK
B11 registered an equilibrium dissociation constant (Kd) of 6.07 nM.
